Laboratory results from US12377176B2, “Cancer diagnostic imaging agents” (Technische Universität München, priority 2019, dated 2025).
Where “and” joins values, the source holds several entries; their conditions need not be identical. Equal entries are not always repeated.

What was measured:
[1] = Human biodistribution and uptake in tumor lesions, PET/CT SUV; assay type: in vivo; conditions: for SUVmax mean, bladder / SUVmax mean, bloodpool / SUVmax mean, bone / SUVmax mean, duodenum / SUVmax mean, kidney / SUVmax mean, liver / SUVmax mean, lungs / SUVmax mean, pancreas / SUVmax mean, parotic gland / SUVmax mean, spleen / SUVmax mean, submandibular gland / SUVmean mean, bloodpool / SUVmean mean, duodenum / SUVmean mean, kidney / SUVmean mean, liver / SUVmean mean, lungs / SUVmean mean, pancreas / SUVmean mean, parotic gland / SUVmean mean, spleen / SUVmean mean, submandibular gland / SUVmax mean, background / SUVmean mean, background / SUVmean mean, bladder / SUVmean mean, bone / SUVmax mean, tumor / SUVmean mean, tumor: patients, PET/CT; for SUVmax mean, background / SUVmean mean, background: gluteal muscle; for SUVmean mean, bone: non-diseased bone; for ratio SUVmax to background, max / ratio SUVmax to background, mean / ratio SUVmax to background, min / ratio SUVmean to background, max / ratio SUVmean to background, mean / ratio SUVmean to background, min: human PET/CT, background gluteal muscle
Protocol: Human biodistribution was estimated by analysing clinical ^18F-rhPSMA-7- and ^18F-rhPSMA-7.3-PET/CT exams in 47 and 32 patients, respectively.
The mean and maximum standardized uptake values (SUVmean/SUVmax) were determined for background (gluteal muscle), normal organs (salivary glands, blood pool, lung, liver, spleen, pancreas, duodenum, kidney, bladder, bone) and three representative tumor lesions. Tumor uptake was analyzed in 89 lesions (26 primary tumors/local recurrences, 23 bone, 38 lymph node and 2 visceral metastases) and 63 lesions (14 primary tumors/local recurrences, 30 bone, 18 lymph node and 1 visceral metastases) for ^18F-rhPSMA-7 and ^18F-rhPSMA-7.3, respectively.
Organ-background and Tumor-background ratios were calculated.

[2] = Preclinical dosimetry in SCID mice, extrapolated to 70-kg Standard Adult (OLINDA/EXM 1.0); assay type: in vivo; conditions: extrapolated from mice
Protocol: 3-5 mice were injected per timepoint with a mean 25.6±3.6 MBq of 18F-rhPSMA-7 and 28.5±4.8 MBq of 18F-rhPSMA-7.3, respectively. Mice, severe combined immunodeficiency (SCID) were used for the experiments.
Urine, blood, heart, lung, spleen, pancreas, liver, stomach (emptied), small intestine (emptied), large intestine (emptied), kidneys, bladder, testis, fat, muscle (partial, femoral), femur, tail and brain. Urine was collected with a pipette in the CO2 gas chamber. In case of missing urination in the chamber the bladder was aspirated with an insulin syringe. Blood was withdrawn instantly after sacrifice with an insulin syringe from the heart. All other tissues and organs were dissected and transferred directly in plastic containers.
The counting rates of measurement samples were automatically corrected for decay. The radioactivity distribution ratios (unit: percentage of the injected dose (% ID) in the measurement samples were determined using the equation below. The sum of the counting rates from all measurement samples obtained from one mouse was designated as the counting rate for administrated radioactivity.
For consistency of statistical calculations for each radiotracer the same number of time-points for ^18F-rhPSMA-7 and ^18F-rhPSMA-7.3 was used. Therefore, for ^18F-rhPSMA-7 the 10 min and 20 min time points were combined creating a 15 min endpoint.
In brief, to calculate a human dosimetry from the biodistribution in the mice, an extrapolation was necessary to account for the differences between the animals and humans. Normal-organ radiation doses were estimated for the 70-kg Standard Adult anatomic model using time-depending organ activity concentrations (in percent of the injected dose per gram, % ID/g) and total-body activities measured in the biodistribution studies in mice.
Tissue activity concentrations in mice were converted to tissue fractional activities in the 70-kg Standard Adult using the relative fractional organ masses in the Standard Adult and the “standard” 25-gramm mouse. Time-dependent total-body activity was fit to an exponential function and the difference between the injected activity and the total-body activity was assumed to be excreted to the urine because activity concentrations in the liver and GI tracer were low at all time points studied.
Organ residence time was calculated by numerical integration using the trapezoidal rule and the rest-of-body ^18F residence times was calculated as the difference between the total-body residence time and the sum of the organ and urine residence times. The bladder contents residence time was estimated using the dynamic voiding model in the OLINDA/EXM 1.0 dosimetry software. Finally, the Standard Adult mean organ dose equivalents (in mSv/MBq) and effective dose (also in mSv/MBq) were then calculated using OLINDA/EXM 1.0.

[3] = target: T1, HSA (Homo sapiens, UniProt P02768); assay: HSA binding on Chiralpak HSA column; assay type: in vitro ADME; conditions: Chiralpak HSA column (50 × 3 mm, 5 μm), (n = 6)
T1 construct: purchased H13H-2433
T1 sequence (P02768 25-609): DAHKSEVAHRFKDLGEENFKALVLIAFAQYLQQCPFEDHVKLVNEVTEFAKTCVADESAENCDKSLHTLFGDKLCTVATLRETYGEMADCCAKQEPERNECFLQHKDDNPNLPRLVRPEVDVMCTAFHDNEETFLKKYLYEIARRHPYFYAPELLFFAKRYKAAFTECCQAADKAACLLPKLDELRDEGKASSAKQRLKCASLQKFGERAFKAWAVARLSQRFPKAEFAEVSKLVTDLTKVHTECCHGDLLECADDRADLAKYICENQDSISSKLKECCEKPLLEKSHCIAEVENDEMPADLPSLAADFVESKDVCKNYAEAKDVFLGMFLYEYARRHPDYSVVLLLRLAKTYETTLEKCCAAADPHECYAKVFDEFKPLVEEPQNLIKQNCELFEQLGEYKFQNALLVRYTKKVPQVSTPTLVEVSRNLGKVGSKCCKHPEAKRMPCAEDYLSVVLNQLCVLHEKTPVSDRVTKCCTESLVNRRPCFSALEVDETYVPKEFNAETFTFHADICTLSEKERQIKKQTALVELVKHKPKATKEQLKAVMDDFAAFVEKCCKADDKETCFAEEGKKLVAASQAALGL
Protocol: The mobile phase (A: NH4OAc, 50 mM in water, pH 7 and B: isopropanol) was freshly prepared for each experiment and only used for one day. The column was kept at room temperature and each run was stopped after detection of the signal to reduce the acquisition time. All substances were dissolved in a 0.5 mg/ml concentration in 50% 2-propanol and 50% 50 mM pH 6.9 ammonium acetate buffer. […] All nine reference substances were injected consecutively to establish a non-linear regression with Origin Pro 2016G.

## [^19F][^natGa]D/L-Dap-R/S-DOTAGA-rhPSMA7 [rhPSMA7-rac]
[1]
  SUVmax mean, bladder: 8.5
  SUVmax mean, bloodpool: 2.4
  SUVmax mean, bone: 1.7
  SUVmax mean, duodenum: 14.8
  SUVmax mean, kidney: 44.8
  SUVmax mean, liver: 9.5
  SUVmax mean, lungs: 1.1
  SUVmax mean, pancreas: 3.7
  SUVmax mean, parotic gland: 23.8
  SUVmax mean, spleen: 11.8
  SUVmax mean, submandibular gland: 27.0
  SUVmean mean, bloodpool: 2.0
  SUVmean mean, duodenum: 10.9
  SUVmean mean, kidney: 32.4
  SUVmean mean, liver: 7.0
  SUVmean mean, lungs: 0.7
  SUVmean mean, pancreas: 2.5
  SUVmean mean, parotic gland: 16.9
  SUVmean mean, spleen: 9.1
  SUVmean mean, submandibular gland: 19.6
  SUVmax mean, background: 1.0
  SUVmean mean, background: 0.6
  SUVmean mean, bone: 1.1
[1]; listed as 18F-rhPSMA-7
  SUVmean mean, bladder: 6.3
[1]; tumor lesions
  SUVmax mean, tumor: 27.6
[1]; tumor lesions, listed as 18F-rhPSMA-7
  SUVmean mean, tumor: 20.0±20.2 and 20.0
[2]; 1.0 h bladder voiding interval
  Effective Dose: 1.22E−02 mSv/MBq
  Effective Dose Equivalent: 1.82E−02 mSv/MBq
[2]; […] bladder voiding interval
  Effective Dose: 2.66E−02 mSv/MBq
  Effective Dose Equivalent: 3.56E−02 mSv/MBq
[3]
  HSA Binding: 96.7%

## CC(C)(C)[Si](F)(c1ccc(C(=O)NC[C@@H](NC(=O)CC[C@@H](C(=O)O)N2CCN(CC(=O)O)CCN(CC(=O)O)CCN(CC(=O)O)CC2)C(=O)N[C@H](CCCCNC(=O)CCC(=O)NCCC[C@@H](NC(=O)CC[C@H](NC(=O)N[C@@H](CCC(=O)O)C(=O)O)C(=O)O)C(=O)O)C(=O)O)cc1)C(C)(C)C [rhPSMA7.3, [^19F][^natGa]D-Dap-S-DOTAGA-rhPSMA7, metal not drawn]
[1]; bladder
  ratio SUVmax to background, max: 5.5
  ratio SUVmax to background, mean: 3.1
  ratio SUVmax to background, min: 0.9
  ratio SUVmean to background, max: 6.8
  ratio SUVmean to background, mean: 3.1
  ratio SUVmean to background, min: 0.9
[1]; bloodpool
  ratio SUVmax to background, max: 5.2
  ratio SUVmax to background, mean: 2.8
  ratio SUVmax to background, min: 1.5
  ratio SUVmean to background, max: 4.9
  ratio SUVmean to background, mean: 2.9
  ratio SUVmean to background, min: 1.7
[1]; bone
  ratio SUVmax to background, max: 3.2
  ratio SUVmax to background, mean: 2.0
  ratio SUVmax to background, min: 1.1
  ratio SUVmean to background, max: 3.6
  ratio SUVmean to background, mean: 2.1
  ratio SUVmean to background, min: 1.0
[1]; duodenum
  ratio SUVmax to background, max: 34.3
  ratio SUVmax to background, mean: 16.2
  ratio SUVmax to background, min: 6.9
  ratio SUVmean to background, max: 39.4
  ratio SUVmean to background, mean: 17.1
  ratio SUVmean to background, min: 4.7
[1]; kidney
  ratio SUVmax to background, max: 93.0
  ratio SUVmax to background, mean: 51.8
  ratio SUVmax to background, min: 25.7
  ratio SUVmean to background, max: 95.5
  ratio SUVmean to background, mean: 55.6
  ratio SUVmean to background, min: 27.6
[1]; liver
  ratio SUVmax to background, max: 19.0
  ratio SUVmax to background, mean: 9.7
  ratio SUVmax to background, min: 4.0
  ratio SUVmean to background, max: 20.7
  ratio SUVmean to background, mean: 11.4
  ratio SUVmean to background, min: 4.1
[1]; lungs
  ratio SUVmax to background, max: 1.8
  ratio SUVmax to background, mean: 1.0
  ratio SUVmax to background, min: 0.6
  ratio SUVmean to background, max: 1.8
  ratio SUVmean to background, mean: 1.0
  ratio SUVmean to background, min: 0.6
[1]; pancreas
  ratio SUVmax to background, max: 6.9
  ratio SUVmax to background, mean: 4.1
  ratio SUVmax to background, min: 2.2
  ratio SUVmean to background, max: 7.8
  ratio SUVmean to background, mean: 4.4
  ratio SUVmean to background, min: 2.3
[1]; parotid gland
  ratio SUVmax to background, max: 46.2
  ratio SUVmax to background, mean: 24.7
  ratio SUVmax to background, min: 11.9
  ratio SUVmean to background, max: 44.6
  ratio SUVmean to background, mean: 25.2
  ratio SUVmean to background, min: 12.4
[1]
  SUVmax mean, bladder: 3.1
  SUVmax mean, bloodpool: 2.8
  SUVmax mean, bone: 2.1
  SUVmax mean, duodenum: 16.4
  SUVmax mean, kidney: 51.9
  SUVmax mean, liver: 9.7
  SUVmax mean, lungs: 1.1
  SUVmax mean, pancreas: 4.2
  SUVmax mean, parotic gland: 24.6
  SUVmax mean, spleen: 11.4
  SUVmax mean, submandibular gland: 28.4
  SUVmean mean, duodenum: 11.0
  SUVmean mean, kidney: 35.5
  SUVmean mean, liver: 7.3
  SUVmean mean, lungs: 0.7
  SUVmean mean, pancreas: 2.8
  SUVmean mean, parotic gland: 16.0
  SUVmean mean, spleen: 8.5
  SUVmean mean, submandibular gland: 19.6
  SUVmax mean, background: 1.0
  SUVmean mean, background: 0.7
  SUVmean mean, bone: 1.3
[1]; listed as 18F-rhPSMA-7.3
  SUVmean mean, bladder: 2.0 and 2.0±0.8
  SUVmean mean, bloodpool: 1.9 and 1.8
[1]; tumor lesions
  SUVmax mean, tumor: 44.0
  ratio SUVmax to background, max: 321.2
  ratio SUVmax to background, mean: 43.6
  ratio SUVmax to background, min: 1.7
  ratio SUVmean to background, max: 356.4
  ratio SUVmean to background, mean: 50.8
  ratio SUVmean to background, min: 1.8
[1]; tumor lesions, listed as 18F-rhPSMA-7.3
  SUVmean mean, tumor: 32.5±42.7 and 32.5
[1]; spleen
  ratio SUVmax to background, max: 22.4
  ratio SUVmax to background, mean: 11.4
  ratio SUVmax to background, min: 3.6
  ratio SUVmean to background, max: 28.6
  ratio SUVmean to background, mean: 13.3
  ratio SUVmean to background, min: 3.9
[1]; submandibular gland
  ratio SUVmax to background, max: 62.1
  ratio SUVmax to background, mean: 28.2
  ratio SUVmax to background, min: 14.0
  ratio SUVmean to background, max: 62.3
  ratio SUVmean to background, mean: 30.6
  ratio SUVmean to background, min: 15.7
[2]; 1.0 h bladder voiding interval
  Effective Dose: 1.28E−02 mSv/MBq
  Effective Dose Equivalent: 1.85E−02 mSv/MBq
[2]; […] bladder voiding interval
  Effective Dose: 2.17E−02 mSv/MBq
  Effective Dose Equivalent: 2.94E−02 mSv/MBq
[3]
  HSA Binding: 96.9%
